Laboratory results from patent US20240368299A1 (JIANGSU KANION PHARMACEUTICAL, published 2024).

Legend:
[1] = biological target: recombinant human CD73 protein with C-terminal 6xHis tag (human) (UniProt P21589); test: SPR, Biacore T200, antibody captured on CM5 chip, human CD73 injected, 25 C, 1:1 fit
CD73 on A549 cells = biological target: T1, CD73 on A549 cells (UniProt P21589 27-549, limits assumed); test: cell-based or functional assay
T1 sequence (looked up): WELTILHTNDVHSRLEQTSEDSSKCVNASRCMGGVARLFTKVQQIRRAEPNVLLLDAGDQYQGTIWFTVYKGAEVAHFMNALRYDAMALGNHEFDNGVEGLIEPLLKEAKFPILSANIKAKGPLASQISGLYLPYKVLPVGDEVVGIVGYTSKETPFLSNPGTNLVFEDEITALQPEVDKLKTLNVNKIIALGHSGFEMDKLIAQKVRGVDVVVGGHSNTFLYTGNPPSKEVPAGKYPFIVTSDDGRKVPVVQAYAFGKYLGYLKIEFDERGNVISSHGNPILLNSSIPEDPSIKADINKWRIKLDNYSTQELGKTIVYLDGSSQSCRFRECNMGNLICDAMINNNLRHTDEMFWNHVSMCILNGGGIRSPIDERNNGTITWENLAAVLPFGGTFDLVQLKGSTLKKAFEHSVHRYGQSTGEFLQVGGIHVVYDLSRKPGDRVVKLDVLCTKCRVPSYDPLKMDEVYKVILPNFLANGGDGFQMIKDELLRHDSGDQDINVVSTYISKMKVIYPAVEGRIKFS

[2] = biological target: recombinant human CD73 protein with C-terminal 6xHis tag (human) (UniProt P21589); test: cell-based or functional assay
[3] = biological target: T2, recombinant human CD73 protein with C-terminal 6xHis tag (human, UniProt P21589 27-547, limits assumed); test: cell-based or functional assay
T2 sequence: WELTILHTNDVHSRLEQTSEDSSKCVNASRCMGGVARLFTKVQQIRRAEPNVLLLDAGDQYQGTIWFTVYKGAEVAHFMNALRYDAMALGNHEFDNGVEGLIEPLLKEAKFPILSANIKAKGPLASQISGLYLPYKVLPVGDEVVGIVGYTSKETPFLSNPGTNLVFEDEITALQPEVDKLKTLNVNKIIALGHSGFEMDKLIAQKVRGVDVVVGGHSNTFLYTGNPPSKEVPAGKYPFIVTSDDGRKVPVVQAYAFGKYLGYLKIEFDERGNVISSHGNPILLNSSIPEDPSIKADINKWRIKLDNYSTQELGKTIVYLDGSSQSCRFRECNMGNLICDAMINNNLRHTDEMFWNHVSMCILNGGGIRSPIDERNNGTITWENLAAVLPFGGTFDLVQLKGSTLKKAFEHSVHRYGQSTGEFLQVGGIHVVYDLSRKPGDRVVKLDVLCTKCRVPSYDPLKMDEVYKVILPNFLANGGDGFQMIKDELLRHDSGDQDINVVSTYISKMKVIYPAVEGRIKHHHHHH

[4] = biological target: T2, recombinant human CD73 protein with …; test: SPR, Biacore T200, antibody captured by anti-mouse Fc IgG on CM5 chip, human CD73 injected, 25 C, 1:1 fit
Protocol: Mouse Antibody Capture Kit, which is a commercialized reagent kit, was purchased from GE. Anti-mouse Fc IgG was fixated on a CM5 sensor chip by amine coupling in order to capture the antibody under test with the coupled anti-mouse Fc IgG. A series of human CD73 proteins having a predetermined concentration gradient were then injected, before samples were taken and tested with the pH 1.7 glycine-HCl regeneration testing chip that came with the reagent kit.
The binding constant (Ka), the dissociation rate constant (Kd), and the equilibrium constant (KD) were calculated with the Biacore T200 evaluation software by combining the model fitting data at a 1:1 ratio.

Q: What does the source list for “MEDI-9447, anti-CD73 monoclonal antibody of MedImmune LLC”?
A: Kd [1]: 0.141 nM; koff [1]: 3.91e-05 s⁻¹; kon [1]: 278000 M⁻¹ s⁻¹; EC50 (µg/mL), Cell level (A549), inhibition of CD73 enzyme activity (CD73 on A549 cells): 0.032 µg/mL; EC50 (µg/mL), Biochemical level, inhibition of CD73 enzyme activity [2]: 0.0896 µg/mL

B1: anti-human CD73 monoclonal antibody 7-C10-Ba-C2 (antibody, V domains shown)
VH: EVQLQQSGPELVKPGASMKISCKASGYSFTGYTMNWVKQSHGKNLEWIGFITPYNGDTIYNQKFKGKATVTVDKSSSTAYMDLLSLTSEDSAVYYCAREGYDGGYFDYWGQGTTLTVSS
VL: DIQMTQSPASLSASVGETVTITCRASENIYSYLAWYQQKQGKSPQLLVYNTQTLAEGVPSRFSGSGSGTQFSLKINSLQPEDFGSYYCQHHYGTPMYPFGGGTKLEIK
notes: Mouse (BABL/c) hybridoma antibody purified from ascitic fluid; also called antibody of the present invention
Q: B1 was tested. Which “EC50 (µg/mL), Cell level (A549), inhibition of CD73 enzyme activity” value (CD73 on A549 cells) did it give?
A: Its value is 0.0854 µg/mL.

Q: What about the “EC50 (µg/mL), Biochemical level, inhibition of CD73 enzyme activity” value [3] of the same molecule?
A: Its value is 0.106 µg/mL.

Q: What about the Kd [4] of the same molecule?
A: The Kd was 0.416 nM.

Q: And the koff [4]?
A: Its koff is 3.21e-05 s⁻¹.

Q: What about the kon [4] of the same molecule?
A: The kon was 77200 M⁻¹ s⁻¹.
